From the NTF2 design screens of Basanta et al. (2020)

Assay: protease stability score; higher = more stable; yeast display proteolysis, trypsin and chymotrypsin;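 also: relative to predicted unfolded state with 0 unfolded-like and 1 meaning tenfold more protease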

Sequence | protease stability score
DEDERLLKELLESLIKSHRTGDWEHLRENADPRTRLEIGDKEIIGMEKVTHFWERERKRADHEHIEIHDMKIYDGVAHVDTRLHFHFNGVDITLEFRLIMLKVNGRWILKSEHLK | 0.133
DEDERLLRDHLKLFQDAVRTGDEEVLSELLDPNVRLHIGDKTIHGREIVIDILRTEMRHLGVDYDETHLHHINIQGEWVHLHTELRLKVNGQRITLWTRLYLYKIDGKWIVTQIQLH | 2.3
DEDERLMQKAMEELWDIWHTGDEDRYNELADPHDRFEVGDKEIHGREETSHFLTEFRKRVKGIRILTDRFDHRRIGDKVVLRLETRIEIDGVRIKTRLIFIIRKFNGKWHIHSIIVIIE | 0.673
DEDERLSRELLKRWMTSIMTGDETSSQHLADPHDRIDINGREFHGRELATWVAHHLRIDSIQERHQEIQGEKLIVLGETDYIVDGVKQIRRTEYILRKFNGRWFFESIIFR | 0.9
DEDERLYRIALEFLIEWHETGDEDEITRNVDPDARVDINGRNLVGREKVHRTLKELGINVLHIHRVHIVNGRLDVDGTVRFNGRTHRTRIIMLKVDGKWILDWLFIH | 1.56
DEDERMIDEYLKKLVKSLITGDEETFTRLVDPHARHDFNGVEYHGWLWLHMVRKRADHFEVRIKNSEVQGDKLRLDFELIFRQGDKTITLKIQVIITKVDGRWIITSIDHD | 1.79
DEDERNAHRMTQILIRSQETGDEHELMRLLDPHARVIIGDKHIHGWEEFSKLEHEYWERYKNMTLHVRLRHVEVINGVAHIHTHITININGKEDRFEIEIFFLKINGRWVLHSFRVD | 0.799
DEDERNHEEIWELFLRVVMTGDWNLHKEMLDPHVRIDIDGVHIHGREEAVKHIRHLRVELNHFHIEDVKIVNGRARIQTHEEVTIRIDGVRIETRRSTELIMIKVDGRWLLHHEIVR | 0.524
DEDERNLREFLRRMVEHWLTGNEESLKRLIDPEVRIHIGDKDLVGREEEERYHRQMRSDRLHVELDSVDIVGDKLQLHITIHIDSIVNGRRLDIKYRHTLHVRKINGRWILEESEIK | 0.814
DEDERNVRDVAYLLLHALWTGDEDMLRHLIDPDVRFHIDGRHHHGWLRVLEMFREIRIHDFRMHDEKFRIIGDKAEARFDGESIVVIDGKEVDRRVEERYIIVKVNGQWRLKMIEVHLR | 1.55
DEDERQLEESLKHWIKALETGNEEEVMRLLDPNVKIEIGDKDLHGMEAEEERLRKVKGMRIEFRLRDMKHIGDKIDIDGELRLNFNGVDIKSKIIIFAHKFNGRWINRRIIVL | 1.83
DEDERRDRELAEHFEHLWMTGDEETLVENLDPNARVKVGDKENHGREAFILFLREFGIDHFEFRDSKIVNGQVHIDGEIDWNGRRTRVEHIVKIVDGKVKHWEIRIK | 1.52
DEDERSAKHYLDLWHHALETGDEHEEERLLDPHVKVDIGDKTSHGRENTRDIIRRLLEELGADVLEFHIRHVNVVNGRVHLDGELVIKVGDYTLRSRTRLLVLKVNGRWFIERIKIE | 1.09
DEDERTFRTAITLLLRDMHTGDEESFEKMVDPRTRLRYNGKELHGRDAYEFSLEELGVKHIEFKDMRVQGDFIWLEGTVNVNGKKIKLILIILKVDGKWIIHSIHLH | 0.799
DEDERTMRIAFEMFKHNLETGDEDVIRRFVDPHVKIDIDGVHLHGWEVMYERIMRFDHVDIRLRDIRTFNGRAEIDGEILVEINGVSIEKRLIIHSEKIDGRWILRSHRII | 0.89
DEDERVLEEALRLWLHWVATGNETKLMEMLDPNVRLDIGDKHTHGREKFHEFMKHHKELWGVTRFHLELKRYSIQGDKVEIDIEVDINGRHFDVHIRILKIDGKWRLEQVRIN | 1.51
DEDERVMRTLLELLLRSHNTGDEDSYKQLLDPDTRVHVDGVDFHGMEFARTLARHWRVKHVELKDVRSQGNKIEADIHTVGVINGQELRTETHIITEKVNGRWVLHSISIR | 1.46
DEDESLAKWAVEVLFEDLRTGDEDHLRRLMDPDTRFIIGDKIFHGREKAEEWLRLNRKRVDHLESFHIHHITVDENHLRVHGRVVGTFDGVEDKYETHIFARKVNGRWHHRQLKIK | 1.49
DEDETFMREFLKELIHSLHTGDEETLLRLADPHTRVVINGRTLIGWETFDKLLKEARVHHHEIKRVRFFDGQVETDTRTDGRIDGVRVEIETTLIVKKVNGRWYMRSVIIT | 0.686
DEDEYMAKEMSELLIHLLLTGDEEHFRKFADPNVRLIIGEFESHGREEALRLLRILHRDYGIKHIHFRLRHIHQIGDKVNIHSQVELRQGDKHNSHEMTVIIWKVNGRWVIHSIDIV | 2.38
DEDFDIVKHIFDVYIDAILTGDFRTLERNIDPDAKLHFNGREYHGWEIVVKFMLEIRVHDVQYKTMHIYDGRVELHGRNDGVIDGQKTETDTKIIMVKIDGRWHVRHIRVG | 1.33
DEDFEHARRVLELFIESVETGDENSYRRLADPNTRYHAENHEHHGREYYIRLLEELRMSVHDLKIESWRLVDGQLRLNTRTDLHVNVNGQRIRLDTETHIVLNKINGRWYIHIIYIG | 1.27
DEDFELAERFLEKWINVSRTGDEKKAHELVDPNVLINIGDKQIHGRERVVEWVSHIRIHHLEIHHFDVQGDKLIIDGRMDGTVNGRRVDHHIRIIISKVNGRWQTKTIDHE | 0.665
DEDFENASRTLKKFYEDEATGDEDALSELVDPNTRLDINGQQVHGWENFRKWIHHLGIKHVILHIRRYDSQGDKLHLETEEVHDFNGVEERRDTRLLLLKVDGKWIFKEIEVK | 1.41
DEDFEYALRVAKLFWEAVFTGDEKTLEHLLDPNVRIDINGRHIHGREELIKLFHEIRIHMHEIRIDDIRVQGNYLLVHGHVILEVNINGRTTRIETEVRIEISKVNGRWIIRQSEHT | 2.08

Sequence | protease stability score
DEDFRDAKHMWELYLELIHTGDEERLRKLMDPNVRVEVGDKELHGRHHYIKWVREMRMRIEDVRIRTVRNINGVVHIHGELRGEYVYGDKRVHFETEVELVLLKVNGRWKIHEEHIH | 1.75
DEDHDIIREALERWRHYVHTGDWRSLLKMMDPHVRNDVDGVDIIGREEASRYYREVFERLGVDHIDIHLRDMQIQGDKVTVHSELELNYNGRRFMHDIEIISVKVDGRWSIRSVFSK | 1.41
DEDHDLQEEILKRFEHLFRTGDWKELHHLLDPHARTRWDGRTRHGRDQVLDVMREMGADHLTIHHYNIQGEKIRIDFDLEIGDKRHKLDIHVSKINGKWIVKHIEIDTR | 1.03
DEDHDVYHRLVKITLSLLATGDESWMKKLFDPHVRVNINGVDVHGREWLLKLFRLLLERLGVDHMTAHVHDFRQYDGRVHADTTEVYDVDGREIRFKTEVIIDKFNGRWFVTFVIII | 1.78
DEDHEAMKHFQHLLERTHRTGDEERLLRLLDPNVRIIINGQHFHGREWWARHINHMRFHEYEFRVHHINVYGDKIEIDGTLRRRGEFDGREHEVNIRVHLTIEKFDGRWYMHILEFR | 0.795
DEDHEAVERLLEHLQTAFLTGDWRREDELVDPNARVHFNGQERHGRHVLRYVNEFLEDRFKNLQIRHSTVHDSHVQGDKIILFTSYELRVDGREFSLKTKIIFHKVDGRWLVTHLYIE | 0.823
DEDHEDMRKILELLRTAYETGDERVHEHLLDPNTRLHIGEFNNVGWHNVLEFFEQHQKELGVKHIELRLEDFDKQGDFLIIHGRLIVNVNGKRINVHLEVHMHKVNGRWYDRERRVL | 0.928
DEDHEDSKHALEYMLDSVRTGDEHRMKRLVDPNMKVHWDGVDVVGRELAAKFLSQLRVHSVHLKDHKVFDGQLDLHVHIRQEWDGRHRETRTTFFILKINGRWLVTEVRVD | 0.249
DEDHEEFHRLVHEIFEYWRTGDEESLSELADPHVRYLYGDKIWIGREDMMTFLREIRIDRVHIEDMRVHKIGNKAEIRSDTRMDLHFNGKRLETKTEVKIVLHKVNGRWVIKSIEYRIE | 2.13
DEDHEELHHWSRLTLESIKTGNEDELHKFADPNVRFKVNGKDIHGMESFVRFMLEFIDRYPNLVLEEKHFHVVNGRMIQIIRVRVGDKTSEIFLIAHKVDGRWHLEHMEIR | 1.08
DEDHEEVEKYLKLFMKISETGNEEDIKKMADPDTRVDIGDKRHHGMEEFLHFWSHWRIHSIDIKDIEVQGEKVIITGETDVTIDGRKLRMKIIIVALKVNGKWIHKSVKFE | 1.37
DEDHEHLERHTRLFLERWRTGDEETLLKLFDPHARSEYGDKHHVGREEVTKLMVIILEKVKGLTIRRLRIKHIEYVDGRAHMDMEVTSEIDGQEVIESVHILMTKVDGRWRIQRVILV | 0.927
DEDHEHLKRMADRSWKIFLTGDEDTFVHLADPNVKQHINIDGRNHQNHGREVILRWQEEFQNYFKNMKIELHDMKFYDGRVHIDATLHWNGVERKIHLIFVIVDGRIKEERFHVR | 0.707
DEDHEIAKKASDIWWHILRTGDEDQLHKMMDPHVRTTVGDKEHHGREAVEHLTHFYKNMQIHVTHERFHVQGDKVHVEREGHLRIGDKRVEVRVRIEIHKVDGKWIIHTIEMELR | 0.425
DEDHEIATKVLELWERLINTGDEEQMSRLADPNTKITIGEKDIVGREDIIKDMRHIRWKVKDFKIHDSSVIDGRIHLDGEMHVIFDVNGRRHERTIRMEIIVEKIDGRWVFKSIHIE | 1.3
DEDHEILHRLWELLIKLLKTGDEEIMKRLADPDTKVEAEGRKLIGRDEFVKWMREFSKRFDHVEIRFKRMHIINGRVYMNGHIVEQQGEYQYRQDTIIVSEKVDGRWLITHIHIE | 1.44
DEDHEISKRALEQWIHDLHTGDEDTLRKFADPNARMEVDGVEHHGMELAMRILLRIDVTEIRIKDMRIVDGRVEIDGEVRDKVNGKTRESRVHLYVLKVDGRWVMESITIQ | 0.476
DEDHELAEDAIRWMSKIMLTGNEEHLHEMFDPDARIRFEGRSSHGWEEMIHFIRHIRIYIKESRIRDVRIQGDKIDVIGEVKIVIRIGDKIHEDTRDVYILVVKVDGRWTVRSFELV | 0.712
DEDHELMRWMLELLIDHTLTGDEERIHELADPNVKIDVNGVELHGRHLWIKYLSELRIHKVEIRQTRLIDGVMHIDTSLDISYDGVRRETQHHLVILKINGKWMIHNVSYK | 1.15
DEDHELSKLAQEWFYKTMVTGDEETAERLADPNMRIDINGKSLHGRKWQRHIIRDLGVDHVEFHDVRTINGQLHISTTINVDGRNQHTHIIVLKIDGRWSLRSSEFK | 0.614
DEDHELSREFLEELLKSWITGDEDVMREFADPNVRQHVDGKDLHGMEEWTRFVYHMRFHDVRIEHHRLFDGQVEIKFREDVTYNGRRVHIESRVRIVKVNGVWRLKELYVH | 0.858
DEDHELVEKFLRQMIFAQITGDWRFMMHLADPHVRYEVGDKHYHGREDMERVFREWRVNSIRIEHIRIIGDKAETHQDEDGHIDGRRIELHVRLILLKVDGRWIVHNSHII | 1.37
DEDHELVHRAIRDLFRALDTGDEDALEEMMDPHTRLHVGDKIYHGRDNVLRFWRRLGVDHVKVHLHDVRIQGEKIDQNTELRIQIGDKRITTETRIIMFKFDGRWRRESVHIE | 1.01
DEDHEQAKRVFDELVDNTRTGDFDNLRKLMDPHARLVINGRNFIGREEVIRVMHEIRIETHRIRSIRIINGQARIDVESEVDINGRTEETRVEIIVFKVDGRWYLHTLRIV | 1.99
DEDHEQSHEMLELFVHSWKTGDWEILIKLLDPHARSIVNGREVHGREEISRYFKEELKKIPNMRIEVKIRSVEIQGDKVDNDVEIIIKYGDKLIRRKVHLLDLKVDGRWFLTDVTIE | 1.96
